Measured values as given in US20220325000A1 (SUZHOU ALPHAMAB, published 2022).
Blank lines part the entries; values can stand above or below the binder they belong to.

Experiments:
[1] = molecular target: T1, hTFPI161-Chis (human, UniProt P10646 29-189, limits assumed); test: BLI, antibody on Protein A biosensor, hTFPI161-Chis 1.875-30 nM, 1:1 model; mean of three batches; average of three batches
T1 construct: also called human TFPI; not shown: C-terminal His tag ('Chis')
T1 sequence (looked up): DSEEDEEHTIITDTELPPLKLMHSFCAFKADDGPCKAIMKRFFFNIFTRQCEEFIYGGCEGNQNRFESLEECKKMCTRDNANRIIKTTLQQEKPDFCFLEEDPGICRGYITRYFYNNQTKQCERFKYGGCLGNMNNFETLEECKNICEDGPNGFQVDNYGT
Method: (§1) In this experiment, the affinity of h7G6 for human TFPI was detected based on Bio-Layer Interferometry (BLI) technology. K2 instrument of Fortibio was used. Firstly, KN057 was diluted to […] and immobilized on Protein A biosensor (model 18-5010), then hTFPI161-Chis was diluted to 30 nM, 15 nM, 7.5 nM, 3.75 nM and 1.875 nm to combine with h7G6, respectively, and the binding signals with different intensities could be detected. The results were fitted using 1:1 model to calculate the equilibrium constant (KD) of the sample.

[2] = molecular target: T1, hTFPI161-Chis; test: BLI, antibody on Protein A biosensor, hTFPI161-Chis 1.875-30 nM, 1:1 model; batch 180727DS
Method: as §1

[3] = molecular target: T1, hTFPI161-Chis; test: ELISA, hTFPI161 coated, anti-human IgG4-HRP, four-parameter fit
Method: hTFPI161 protein was coated on the plate at 0.5 μg/well overnight at 4° C. After washing, the gradient dilution series of h7G6 antibody protein obtained in the above example was added, and incubated at 25° C±2° C. for 2 h. After washing, 1:2000 diluted Mouse Anti-Human IgG4 pFc′ antibody [HP 6023] (HRP) was added at 100 μL/well, and incubated at 25° C.±2° C. for 2 h. After washing, the development solution was added, and the absorbance was read at the wavelength of 450/650 nm. The software SotfMax Pro v5.4 was applied for data processing and mapping analysis, using four-parameter fitting, the binding curve of h7G6 antibody to hTFPI161 and EC50 value were obtained, which reflects the affinity of the antibody for hTFPI161.

[4] = molecular target: T1, hTFPI161-Chis; test: competitive ELISA, FXa coated (competitor), 50 ng/mL hTFPI161, anti-His-HRP, four-parameter fit
Method: FXa Protease was coated on the plate at 0.2 μg/well overnight at 4° C., after blocking with BSA, the gradient dilution series of hu7G6 antibody protein obtained from the above example was added at 100 uL/well (50 ng/mL hTFPI161 was contained in the dilution), and the reaction was carried out at room temperature for 1 hour. After washing, 1:1500 diluted Mouse THETM His Tag Antibody [HRP] mAb was added, and the reaction was carried out at room temperature for 1 hour. After washing, the development solution was added, and the absorbance was read at the wavelength of 450/650 nm.
The software SotfMax Pro v5.4 was applied for data processing and mapping analysis, using four-parameter fitting, the inhibition curve of h7G6 antibody for FXa-TFPI and EC50 value were obtained. The results were shown in FIG. 3, in which the ordinate was OD450 and the abscissa is the concentration of h7G6 antibody protein (ng/mL); and Hu7G62-v2 antibody protein was effective in inhibiting the interaction between FXA and TFPI.

[5] = molecular target: T1, hTFPI161-Chis; test: BLI, antibody on Protein A biosensor, hTFPI161-Chis 1.875-30 nM, 1:1 model; batch 180820DS
Method: as §1

[6] = molecular target: T2, hTFPI antigen (human); test: competitive ELISA, FXa coated (competitor), supernatant diluted 100x
T2 construct: Self-made hTFPI used in the hybridoma screens; It may be the same protein as hTFPI161; also called human TFPI; hTFPD
Method: (§2) Coat with 2μg/mL FXA Protease (Neb, batch No. 0941404), after blocking with BSA, the same diluted supernatant of TFPI hybridoma cells and 50 ng/mL hTFPD (batch No. TE20140825, self-made) were added for complete incubation, followed by 1:1500 diluted mouse THETM His Tag Antibody [HRP] mAb (GenScript, batch No. 14C000744), after development by TMB, 1 M H2SO4 stop solution was added to stop developing and the value was read on the microplate reader. Using 650 nm as the reference wavelength, the OD values were read at 450 nm and 650 nm. […] The lower the OD value, the better the inhibition of the anti-TFPI antibody.
(§3) Afterwards, the supernatant of 31 7G6 subcloned cells was performed with the inhibition experiment at different dilution ratios, and the experimental method was the same as 1.2.

[7] = molecular target: T2, hTFPI antigen; test: competitive ELISA, FXa coated (competitor), supernatant diluted 10x
Method: as §2, §3

[8] = molecular target: T2, hTFPI antigen; test: ELISA, subclone supernatant, hTFPI, OD450

B1: Hu7G62-v2 (antibody, human IgG4 S228P, kappa, V domains shown)
VH: QVQLVQSGAEVKKPGASVKVSCKASGYSFTSYGISWVKQAPGQGLEWIGEIYPRSTNTYYNEKFMGKATLTADKSSSTAYMELSSLRSEDTAVYYCARESFYGDYGAMDFWGQGTLVTVSS
VL: DIVMTQSPLSLPVTPGEPASISCKSSQSLLESDGKTYLNWYLQKPGQSPQLLIYLVSKLDSGVPDRFSGSGSGTDFTLKISRVEAEDVGVYYCSQGTHFPRTFGQGTKVEIKR
notes: also called hu7G6-2v2-G4ws; h7G6 antibody
Kd [1]: 1.37 nM
Kd [2]: 1.32 nM
EC50 [3]: 0.0419 µg/mL
IC50 [4]: 0.222 µg/mL
Kd [5]: 1.47 nM

B2: TFPI-7G6-1C12 (antibody, V domains shown)
VH: QVQLQQSGAELARPGASVKLSCKASGYSFTSYGISWVKQRTGQGLEWIGEIYPRSTNTYYNEKFMGKATLTADKSSSTAFMELRSLTSEDSAVYFCARESFYGDYGAMDFWGQGASVTVSS
VL: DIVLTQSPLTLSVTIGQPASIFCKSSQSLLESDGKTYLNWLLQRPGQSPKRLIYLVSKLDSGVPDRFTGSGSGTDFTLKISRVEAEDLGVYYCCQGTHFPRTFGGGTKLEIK
notes: Subclone supernatant
Inhibition % [6]: 57.9%
Inhibition % [7]: 95.2%
OD [8]: 1.24

Second part, the binder after the results:

Inhibition % [6]: 62.1%
Inhibition % [7]: 95.9%
OD [8]: 1.25
B3: TFPI-7G6-5A10 (antibody, V domains shown)
VH: B2 VH
VL: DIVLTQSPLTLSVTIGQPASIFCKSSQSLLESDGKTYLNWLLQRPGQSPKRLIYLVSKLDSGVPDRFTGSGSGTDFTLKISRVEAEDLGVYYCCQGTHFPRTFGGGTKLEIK
notes: Subclone supernatant

Inhibition % [6]: 55%
Inhibition % [7]: 95.1%
OD [8]: 1.35
B4: TFPI-7G6-5F11 (antibody, V domains shown)
VH: B2 VH
VL: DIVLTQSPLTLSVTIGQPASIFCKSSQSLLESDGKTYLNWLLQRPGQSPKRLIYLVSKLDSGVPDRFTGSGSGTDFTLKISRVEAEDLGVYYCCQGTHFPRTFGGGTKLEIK
notes: Subclone supernatant

Inhibition % [6]: 62.7%
Inhibition % [7]: 95.9%
OD [8]: 1.27
B5: TFPI-7G6-2G8 (antibody, V domains shown)
VH: B2 VH
VL: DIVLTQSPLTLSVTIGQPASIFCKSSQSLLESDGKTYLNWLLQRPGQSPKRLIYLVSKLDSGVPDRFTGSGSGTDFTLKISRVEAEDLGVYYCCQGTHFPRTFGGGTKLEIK
notes: Subclone supernatant
